Assays:
Experiment in all cases: purified protein
Type in all cases: biochemical, Thermus thermophilus
Conditions in all cases: pH 7.5, 47.5 °C, 10% (v/v) isopropanol, enzyme prediluted in 50 mM phosphate
purified protein [1] = substrate: CCCCCCCC(=O)Oc1ccc([N+](=O)[O-])cc1
purified protein [2] = substrate: CCCCCCCCCC(=O)Oc1ccc([N+](=O)[O-])cc1
purified protein [3] = substrate: CCCCCCCCCCCC(=O)Oc1ccc([N+](=O)[O-])cc1
purified protein [4] = substrate: CCCCCCCCCCCCCC(=O)Oc1ccc([N+](=O)[O-])cc1

B1: KLEST-3S esterase (E34Tt, N-terminally truncated ∆N16 variant) (Thermus thermophilus HB27) (protein)
chain: QGLEAFWKAVEVPGGVCADGSPYRFYVSPGDPRKVVVDFQGGGACWDQATCGPESRTYRKRVDVQELYLAQGIYNRMSVANPFFGWTHVFVPYCTGDLHVGRATVDYGGFKVHHQGARNAQAALEYVFRNHTNPERVFVTGCSAGAYGAVLWADKILATYKNAQIAVCGDAGVGVVTEDFPGFTAWNPRLPELPGLSSPPKVSEIYRALAQAYPKAVLAQYTTLLDGTQIYFYALMKKEAAPSEATAREWAVAAERAVGFPASEANYTYYLAPGSQHCILPRPELYTLKVGEVSFLDWLRALAEGRTPPRVRP
notes: ∆N16 (putative secretion signal removed; printed cleavage site between residues 16 and 17); secreted by Kluyveromyces lactis NRRL-Y1140; cell-free medium concentrated by ultrafiltration, partially purified, essentially free of contaminant proteins
Q: How did the Km (purified protein [1]) turn out when B1 was run?
A: 130 ± 30 µM

Q: What about the kcat/Km (purified protein [1]) of the same protein?
A: 3.95e+07 M⁻¹ s⁻¹

Q: What about the Km (purified protein [2]) of the same protein?
A: 90 ± 10 µM

Q: And the kcat/Km (purified protein [2])?
A: 4.59e+07 M⁻¹ s⁻¹

Q: What about the Km (purified protein [3]) of the same protein?
A: 140 ± 30 µM

Q: And the kcat/Km (purified protein [3])?
A: 2.34e+07 M⁻¹ s⁻¹

Q: And the Km (purified protein [4])?
A: 190 ± 40 µM

Q: What about the kcat/Km (purified protein [4]) of the same protein?
A: 322000 M⁻¹ s⁻¹

From publication PMC9143606, “Reactivity of a Recombinant Esterase from Thermus thermophilus HB27 in Aqueous and Organic Media” (Microorganisms, 2022)
